Patent publication US20220251182A1, “AGENTS WHICH INHIBIT GADS DIMERIZATION AND METHODS OF USE THEREOF” (Technion Research & Development Foundation Limited, priority 2017, published 2022)
Changes are numbered by the printed parent chain. In names and notes the source's numbering stands. Each block holds one molecule with its values, some of them ahead of it. Square brackets hold non-standard residues; d marks the D form. Ends that are not written are not given here. pY = N[C@@H](Cc1ccc(OP(=O)(O)O)cc1)C(=O)O

T1: monomeric Gads SH2 (Homo sapiens, UniProt O75791)
T1 construct: The SH2 only construct encoded residues Q54-Q153 of Gads, and was tagged at the N-terminus with either MBP or His; made in house; host or cells: E. coli BL21 codon-plus
T1 sequence (O75791 54-153): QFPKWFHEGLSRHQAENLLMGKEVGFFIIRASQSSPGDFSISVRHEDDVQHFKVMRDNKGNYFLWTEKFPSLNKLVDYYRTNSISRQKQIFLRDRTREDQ

T2: N-terminally twin-strep-tagged full length human Gads-GFP F92D (human, UniProt O75791 1-330)
T2 construct: Expressed in dG32 T cells and in Gads-deficient murine BMMCs; also called Gads F92D; F92D-reconstituted; not shown: N-terminal twin-strep tag; C-terminal monomeric GFP (A206K) from pMIGR
T2 sequence: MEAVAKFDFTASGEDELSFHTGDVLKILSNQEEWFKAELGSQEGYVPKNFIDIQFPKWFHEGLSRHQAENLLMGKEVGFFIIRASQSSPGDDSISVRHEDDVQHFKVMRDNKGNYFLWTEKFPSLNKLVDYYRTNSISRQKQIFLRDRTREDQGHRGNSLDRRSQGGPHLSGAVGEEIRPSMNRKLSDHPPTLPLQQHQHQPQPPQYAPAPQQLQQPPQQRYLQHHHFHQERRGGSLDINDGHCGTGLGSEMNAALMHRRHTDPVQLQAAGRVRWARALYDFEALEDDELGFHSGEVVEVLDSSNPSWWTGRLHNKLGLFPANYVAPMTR

B1: His-tagged Gads SH2 (His-SH2) (protein)
chain: MHHHHHHGSMQFPKWFHEGLSRHQAENLLMGKEVGFFIIRASQSSPGDFSISVRHEDDVQHFKVMRDNKGNYFLWTEKFPSLNKLVDYYRTNSISRQKQIFLRDRTREDQ
B2: MBP-Gads lacking the C-terminal SH3 and linker (ΔC-SH3+linker, Δ154-328) (other)
chain: MEAVAKFDFTASGEDELSFHTGDVLKILSNQEEWFKAELGSQEGYVPKNFIDIQFPKWFHEGLSRHQAENLLMGKEVGFFIIRASQSSPGDFSISVRHEDDVQHFKVMRDNKGNYFLWTEKFPSLNKLVDYYRTNSISRQKQIFLRDRTREDQTR
notes: Deletion of residues 154-328; also called lacking the C-SH3 domain and the linker domain; not shown: N-terminal MBP tag and its linker from pMAL-C5x (NEB)
B3: MBP-Gads lacking the linker (Δlinker Gads, Δ154-267) (other)
chain: MEAVAKFDFTASGEDELSFHTGDVLKILSNQEEWFKAELGSQEGYVPKNFIDIQFPKWFHEGLSRHQAENLLMGKEVGFFIIRASQSSPGDFSISVRHEDDVQHFKVMRDNKGNYFLWTEKFPSLNKLVDYYRTNSISRQKQIFLRDRTREDQQAAGRVRWARALYDFEALEDDELGFHSGEVVEVLDSSNPSWWTGRLHNKLGLFPANYVAPMTR
notes: Deletion of residues 154-267; also called lacking the linker domain; not shown: N-terminal MBP tag and its linker from pMAL-C5x (NEB)
B4: MBP-Gads lacking the C-terminal SH3 (ΔCSH3 Gads, Δ274-328) (other)
chain: MEAVAKFDFTASGEDELSFHTGDVLKILSNQEEWFKAELGSQEGYVPKNFIDIQFPKWFHEGLSRHQAENLLMGKEVGFFIIRASQSSPGDFSISVRHEDDVQHFKVMRDNKGNYFLWTEKFPSLNKLVDYYRTNSISRQKQIFLRDRTREDQGHRGNSLDRRSQGGPHLSGAVGEEIRPSMNRKLSDHPPTLPLQQHQHQPQPPQYAPAPQQLQQPPQQRYLQHHHFHQERRGGSLDINDGHCGTGLGSEMNAALMHRRHTDPVQLQAAGRVTR
notes: Deletion of residues 274-328; also called lacking the C-SH3 domain; not shown: N-terminal MBP tag and its linker from pMAL-C5x (NEB)
B5: phospho-LAT (endogenous, TCR-stimulated Jurkat-derived dG32 T cells) (other, UniProt O43561-2 1-233, looked up)
chain: MEEAILVPCVLGLLLLPILAMLMALCVHCHRLPGSYDSTSSDSLYPRGIQFKRPHTVAPWPPAYPPVTSYPPLSQPDLLPIPRSPQPLGGSHRTPSSRRDSDGANSVASYENEEPACEDADEDEDDYHNPGYLVVLPDSTPATSTAAPSAPALSTPGIRDSAFSMESIDDYVNVPESGESAEASLDGSREYVNVSQELHPGAAKTEPAALSSQEAEEVEEEGAPDYENLQELN
modifications: tyrosine-phosphorylated after anti-TCR (C305) stimulation; detected with anti-phospho-LAT (pY132)
notes: Endogenous protein in lysates; also called pLAT; pY132-phosphorylated LAT
B6: full length MBP-tagged Gads (MBP-Gads), wild type (other, not shown: large carriers)
chain: T2 sequence with D92F
notes: Purified as monomeric and dimeric SEC fractions; also called full length Gads; Gads-MBP protein
B7: full length MBP-Gads F92A/R109A (other, not shown: large carriers; small tags and cut ends)
chain: T2 sequence with D92A, R109A
notes: Full length human Gads with double mutation; also called full length Gads F92A/R109A
B8: N-terminally twin-strep-tagged full length human Gads-GFP F92A/R109A (other)
chain: T2 sequence with D92A, R109A
notes: Expressed in dG32 T cells; also called Gads F92A/R109A; not shown: N-terminal twin-strep tag; C-terminal monomeric GFP (A206K) from pMIGR
B9: MBP-Gads lacking the N-terminal SH3 (ΔN-SH3 Gads, Δ2-53) (other, not shown: large carriers; small tags and cut ends)
chain: MQFPKWFHEGLSRHQAENLLMGKEVGFFIIRASQSSPGDFSISVRHEDDVQHFKVMRDNKGNYFLWTEKFPSLNKLVDYYRTNSISRQKQIFLRDRTREDQGHRGNSLDRRSQGGPHLSGAVGEEIRPSMNRKLSDHPPTLPLQQHQHQPQPPQYAPAPQQLQQPPQQRYLQHHHFHQERRGGSLDINDGHCGTGLGSEMNAALMHRRHTDPVQLQAAGRVRWARALYDFEALEDDELGFHSGEVVEVLDSSNPSWWTGRLHNKLGLFPANYVAPMTR
notes: Deletion of residues 2-53; also called Gads ΔN; Gads lacking the N-SH3
B10: MBP-Gads SH2 (SH2 only construct, residues Q54-Q153 of Gads), wild type (protein)
chain: T1 sequence (O75791 54-153)
B11: MBP-Gads SH2 F92A/R109A (other, not shown: large carriers; small tags and cut ends)
chain: MQFPKWFHEGLSRHQAENLLMGKEVGFFIIRASQSSPGDASISVRHEDDVQHFKVMADNKGNYFLWTEKFPSLNKLVDYYRTNSISRQKQIFLRDRTREDQ
notes: Double mutant in the context of MBP-Gads SH2; also called F92A/R109A SH2 mutant
B12: MBP-Gads SH2 R109A (other)
chain: B11 chain with A40F
notes: Point mutant in the context of MBP-Gads SH2; not shown: N-terminal MBP tag and its linker from pMAL-C5x (NEB)
B13: MBP-Gads SH2 R109D (other, not shown: large carriers; small tags and cut ends)
chain: B11 chain with A40F, A57D
notes: Point mutant in the context of MBP-Gads SH2

Legend:
monomeric Gads SH2 = biological target: T1, monomeric Gads SH2; experiment: Size exclusion chromatography of monomeric Gads SH2 incubated with LAT peptides; type: binding; details: 0.7 μM MBP-Gads SH2 monomeric fraction, 5 μM peptide, 15 minutes on ice
Description: FIG. 9A is a schematic representation of two possible modes of Gads binding to 2pY-LAT. […] In FIG. 9C, 0.7 μM full length MBP-Gads from the monomeric fraction, was incubated for 15 minutes at 37° C., either alone (solid line), or in the presence of 5 μM 2pY-LAT peptide (SEQ ID NO: 32, dotted line). […] 20 μM MBP-Gads SH2 from the dimeric fraction was incubated for 30 minutes on ice (blue) or at 37° C. for 15 minutes (red, solid line), followed by an additional 15 minutes at 37° C. in the presence of 40 μM of 2pY-LAT (SEQ ID NO: 32, red dotted line); and then resolved by size exclusion chromatography.
Fast protein liquid chromatography (FPLC)—MBP- and His-tagged proteins were resolved by size exclusion chromatography at 12° C., using an ÄKTA FPLC system (GE Healthcare), fitted with Superdex 200 10/300 or 16/60 HiLoad for MBP-tagged proteins or Superdex 75 10/300 for His-tagged proteins, in column buffer containing 20 mM HEPES pH 7.3, 100 mM NaCl, 1 mM EDTA, 10% glycerol.
Two possible modes of Gads binding to 2pY-LAT were envisioned, single and paired (FIG. 9A). To ensure the availability of both modes, a 7-fold molar excess of 2pY-LAT peptide was applied. In the absence of cooperativity, the large molar excess of unbound SH2-binding sites should favor unpaired binding (FIG. 9A, left).

[1] = nano-DSF of dimeric His-SH2, self-association
[2] = biological target: the molecule itself; experiment: size exclusion chromatography, self-association
[3] = biological target: T2, N-terminally twin-strep-tagged full …; experiment: streptactin pull-down of twin-strep Gads-GFP from dG32 cell lysates, western blot with anti-pY132-LAT
[4] = biological target: the molecule itself; experiment: size exclusion chromatography, Superdex 200 10/300 GL; self-association (dimer)
Description: Size-Exclusion Chromatography and Multi-Angle Light Scattering (SEC-MALS)—The average molecular weight of Gads proteins was determined by SEC-MALS. The system consisted of an ÄKTA avant 25, coupled to a UV detector (GE Healthcare) and a miniDAWN triple-angle light-scattering detector (Wyatt Technology). […] Data collection and analysis was performed with Wyatt's ASTRA 6.1.1 software.

[5] = biological target: the molecule itself; experiment: size exclusion chromatography; self-association
[6] = biological target: B5; experiment: streptactin pull-down of twin-strep Gads-GFP from dG32 cell lysates, western blot with anti-pY132-LAT
[7] = biological target: the molecule itself; experiment: analytical size exclusion chromatography of the dimeric fraction after incubation at 37°C; self-association
[8] = nano-DSF of dimeric MBP-Gads SH2, self-association
[9] = biological target: pY171-LAT peptide (singly phosphorylated on Y171); experiment: ITC at 25 C, peptide injected into monomeric MBP-Gads SH2; KD = 1/KA, 1:1 model
[10] = biological target: pY171-LAT peptide (singly phosphorylated on Y171); experiment: isothermal titration calorimetry, 1:1 binding model (Affinimeter), linked-parameter analysis of three repeats
[11] = biological target: the molecule itself; experiment: size exclusion chromatography; self-association; remark: listed apart in the source
[12] = biological target: the molecule itself; experiment: size exclusion chromatography; self-association; remark: listed apart in the source

Gads mobility shift on size exclusion chromatography (paired binding / dimeric form) (monomeric Gads SH2): dramatic shift towards the dimeric form
Molecule: DDpYVNVPESGESAEASLDGSREpYVNVSQE (DD[pY]VNVPESGESAEASLDGSRE[pY]VNVSQE) [2pY-LAT, 29-residue LAT peptide encompassing tyrosines 171 and 191, doubly phosphorylated]

Molecule: B1
temperature of monomerization (first nano-DSF transition) [1]: 32.5 °C

Molecule: B2
binding result [2]: binds

Molecule: B3
binding result [2]: binds

Molecule: B4
binding result [2]: binds

Molecule: B5
binding result [3]: no binding

Molecule: B6
binding result [4]: binds

Molecule: B7
binding result [5]: no binding

Molecule: B8
binding result [6]: no binding

Molecule: B9
binding result [7]: binds

Molecule: B10
temperature of subtle transition of the dimeric form (nano-DSF) [8]: approximately 33 °C
Kd [9]: 177 nM
H [10]: -7.23 kcal/mol

Molecule: B11
binding result [11]: no binding
Kd [9]: 335 nM
H [10]: -9.03 kcal/mol

Molecule: B12
binding result [12]: binds

Molecule: B13
binding result [12]: binds
